From patent US20250145720A1 come the findings set out here.

The target of test [1] is human complement component C1q (human) (UniProt P02745). Description: FACS, C1q on antibody-opsonized Daudi cells, Exp. 7. For orientation: In flow cytometry, cells or beads pass a laser one at a time.
Test [2] has the same target. Briefly: FACS, C1q on antibody-opsonized Daudi cells, average.
For test [3] the target is unchanged. Description: FACS, C1q on antibody-opsonized Daudi cells, ranking table.
Test [4] shares this target. Briefly: FACS, C1q on antibody-opsonized Daudi cells, Exp. 8.
Test [5] shares this target. Description: cell-based or functional assay.
Test [6] has the same target. Description: FACS, C1q on antibody-opsonized Daudi cells, Exp. 11.
For test [7] the target is unchanged. Description: FACS, C1q on antibody-opsonized Daudi cells, Exp. 5.
For test [8] the target is unchanged. Description: FACS, C1q on antibody-opsonized Daudi cells, ranking table; no reliable fit.
The target is the same in test [9]. Briefly: FACS, C1q on antibody-opsonized Daudi cells, Exp. 6; no reliable fit, too weak binding.
Test [10] has the same target. Description: FACS, C1q on antibody-opsonized Daudi cells, Exp. 11; no reliable fit, too weak binding.
For test [11] the target is unchanged. Briefly: FACS, C1q on antibody-opsonized Daudi cells, average; no reliable fit, too weak binding.
Test [12] shares this target. Briefly: FACS, C1q on antibody-opsonized Daudi cells, Exp. 10.
The target is the same in test [13]. Description: FACS, C1q on antibody-opsonized Daudi cells, average (row shifted one column to the left).
The target is the same in test [14]. Briefly: FACS, C1q on antibody-opsonized Daudi cells, Exp. 9.
Test [15] has the same target. Description: FACS, C1q on antibody-opsonized Daudi cells, Exp. 6.
Test [16] shares this target. Briefly: FACS, C1q on antibody-opsonized Daudi cells, Exp. 5; no reliable fit, too weak binding.

Bounds are passed on as bounds.

Usually Kd stands for a measure of binding affinity in units of concentration.

Sequence of human complement component C1q (human) (P02745 23-245 limits assumed, chain 1 of 3): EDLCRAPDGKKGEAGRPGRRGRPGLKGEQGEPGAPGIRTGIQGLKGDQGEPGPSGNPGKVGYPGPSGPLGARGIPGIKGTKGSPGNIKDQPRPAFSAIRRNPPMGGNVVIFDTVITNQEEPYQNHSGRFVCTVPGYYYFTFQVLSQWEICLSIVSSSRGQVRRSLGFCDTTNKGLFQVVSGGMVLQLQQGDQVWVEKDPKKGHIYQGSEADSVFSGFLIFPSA
Sequence of human complement component C1q (human) (P02746 28-253 limits assumed, chain 2 of 3, further chain): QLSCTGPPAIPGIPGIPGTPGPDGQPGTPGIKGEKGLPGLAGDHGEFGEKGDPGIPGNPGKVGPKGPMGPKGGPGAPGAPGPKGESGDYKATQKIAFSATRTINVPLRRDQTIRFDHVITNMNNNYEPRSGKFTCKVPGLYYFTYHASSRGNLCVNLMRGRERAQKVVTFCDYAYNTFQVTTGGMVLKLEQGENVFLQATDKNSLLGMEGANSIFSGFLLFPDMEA
Sequence of human complement component C1q (human) (P02747 29-245 limits assumed, chain 3 of 3, further chain): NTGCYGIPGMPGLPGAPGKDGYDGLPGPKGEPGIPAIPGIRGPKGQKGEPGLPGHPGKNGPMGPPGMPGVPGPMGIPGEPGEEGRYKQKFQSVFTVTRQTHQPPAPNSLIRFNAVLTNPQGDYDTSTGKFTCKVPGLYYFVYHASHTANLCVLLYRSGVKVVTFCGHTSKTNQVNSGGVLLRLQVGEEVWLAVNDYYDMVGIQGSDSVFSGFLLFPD

IgG1-7D8-E382R (antibody): the dissociation constant (Kd) in [1] worked out at 1.18 nM; in test [2], 2.3 nM; in [3], 2.3 nM; in [4], 1.13 nM. In test [5], this substance returned a CH50 (C1q concentration giving 50% lysis), CDC on Raji cells in C1q-depleted serum of 0.77 µg/mL. In test [5], this substance returned an EC50 of CDC on Daudi cells, 20% normal human serum of 0.76 µg/mL. Further, in test [5], the EC50 of CDC on Raji cells, 20% normal human serum was found to be 2.96 µg/mL.
IgG1-7D8-H310K (antibody): the Kd in test [6] came out at 216 nM; in [2] it was 124 nM; in test [3], 124 nM; in [7], 32.4 nM. The same substance returned a CH50 (C1q concentration giving 50% lysis), CDC on Raji cells in C1q-depleted serum in [5] of over 30 µg/mL. Moreover, the EC50 of CDC on Daudi cells, 20% normal human serum in test [5] amounted to 3.03 µg/mL. The substance further returned an EC50 of CDC on Raji cells, 20% normal human serum in test [5] of 19.3 µg/mL.
Consider IgG1-7D8-H433D (antibody), for which the Kd in test [8] came to 1960 nM; in [9] it was 1230 nM; in test [10], 2690 nM; in test [11] it was 1960 nM. In [5], this substance came in with a CH50 (C1q concentration giving 50% lysis), CDC on Raji cells in C1q-depleted serum of over 30 µg/mL. Moreover, the EC50 of CDC on Daudi cells, 20% normal human serum in test [5] was 4.73 µg/mL. Further, the EC50 of CDC on Raji cells, 20% normal human serum in test [5] was over 30 µg/mL.
In the case of IgG1-7D8-H433R (antibody), the Kd in [12] was determined as 1.6 nM; in test [13], 3 nM; in test [1], 0.72 nM; in test [3] it was 3 nM; in [14], 5.69 nM; in test [4], 1.78 nM. Further, the CH50 (C1q concentration giving 50% lysis), CDC on Raji cells in C1q-depleted serum in [5] was 0.16 µg/mL. The substance further came in with an EC50 of CDC on Daudi cells, 20% normal human serum in test [5] of 0.33 µg/mL. For the same substance, the EC50 of CDC on Raji cells, 20% normal human serum in [5] is 1.42 µg/mL.
Regarding IgG1-7D8-I253D/H433A (antibody), the Kd stood at 246 nM in [6], 5290 nM in test [8], 5290 nM in [2] and 10300 nM in test [15]. In [5], this substance gave a CH50 (C1q concentration giving 50% lysis), CDC on Raji cells in C1q-depleted serum of over 30 µg/mL. Further, the EC50 of CDC on Daudi cells, 20% normal human serum in [5] was 4.77 µg/mL. The substance also gave an EC50 of CDC on Raji cells, 20% normal human serum in test [5] of over 30 µg/mL.
Consider IgG1-7D8-K439E/S440K (antibody), for which the Kd in test [12] worked out at 2.9 nM; in test [1], 1.63 nM; in test [2], 2.6 nM; in [3] it was 2.6 nM; in test [4] it was 1.01 nM; in test [15] it was 4.6 nM. In test [5], the CH50 (C1q concentration giving 50% lysis), CDC on Raji cells in C1q-depleted serum came out at 0.09 µg/mL. In test [5], this substance registered an EC50 of CDC on Daudi cells, 20% normal human serum of 0.33 µg/mL. Further, in test [5], the EC50 of CDC on Raji cells, 20% normal human serum turned out to be 1.34 µg/mL.
Take IgG1-7D8-Q438D (antibody): the Kd in test [6] was determined as 667 nM; in test [2] it was 717 nM; in test [3], 717 nM; in test [7] it was 767 nM. The CH50 (C1q concentration giving 50% lysis), CDC on Raji cells in C1q-depleted serum in [5] is over 30 µg/mL. For the same substance, the EC50 of CDC on Daudi cells, 20% normal human serum in test [5] is 2.61 µg/mL. The substance also came in with an EC50 of CDC on Raji cells, 20% normal human serum in test [5] of 19.5 µg/mL.
For IgG1-7D8-Y436C (antibody), the dissociation constant Kd in test [16] is 2420 nM; in test [8], 1270 nM; in test [10], 128 nM; in test [11] it was 1270 nM. In test [5], this substance registered an EC50 of CDC on Daudi cells, 20% normal human serum of 1.9 µg/mL. The substance also yielded an EC50 of CDC on Raji cells, 20% normal human serum in test [5] of 11.9 µg/mL.
With Ofatumumab (antibody), the equilibrium dissociation constant (Kd) in test [12] is 12.8 nM; in test [2] it was 7.2 nM; in [14], 12.5 nM; in test [4] it was 2.7 nM; in test [15], 5.4 nM.
